Laboratory results: a protein production outcome set (Wang et al. 2014)

Assay: label from the status in PepcDB records

| Sequence | protein production |
| --- | --- |
| MKRSIEDTPIVLIGAGNLATNLAKALYRKGFRIVQVYSRTEESARELAQKVEAEYTTDLAEVNPYAKLYIVSLKDSAFAELLQGIVEGKREEALMVHTAGSIPMNVWEGHVPHYGVFYPMQTFSKQREVDFKEIPFFIEASSTEDAAFLKAIASTLSNRVYDADSEQRKSLHLAAVFTCNFTNHMYALAAELLKKYNLPFDVMLPLIDETARKVHELEPKTAQTGPAIRYDENVIGNHLRMLADDPAMQRLYELLSRSIHERQ | not failed |
| MKRTIFLLMSILLLLTACGDGHKQTSSDKEQSEHKDNHNKNQVKQIATDKKVQGDNYRTILPFKESQARGLLQDNMANGYNGEDFESGLLELSKEIFPTNKYLYQDGQYLDKKTINAYLDPKYTKKEIDKMSEKEKKSKNANENLGLNPSHNGETDEEKIAKNSPAYLSNILEQDFYGNSDSKGKNIKGMTIGLAMNSVYYYKKEKDGETFSKDLSDKEIEKQGKQMASEMLSRLRENSDLKDIPIHFAIYKQSSQDSITPGEFIVGTTVEEGKTKINSWDNINEKAALIPSSTAADYDETLNNNFKQFNDNLQSYFSNFTQAVGKVKFVNKKAKQLTVDLPIDYYGQAETIGITQYVTEQAEKYFDKLDEYEIRIKDGNTPRALISKTKDDKEPQVHIYHN | failed |
| MKRTLLAISIFAITCNASASSSPDAVSSMSDRYSTLANLEMNGGFPTETSQKILQNESYFQRASMLYQWALPIVNMKAMQEGHAELMNGTAYNKIAIYQDRLKPNSLITTPNSDVIYAMGWLDMKETGPLIIEHPAGLQSLMDDMYHHPLRGPLDKNQPGGQYLGDIGNAGPDKGKAAKFLILPPNKKREDYAQLADKYFIYESNTSEVFLFLRSFFKDMNNLEPAVNRVKEIKVYPLNGSAESMEFFNVSDVPSKSIWDNDYRFYETLNRAVQNMELATFDPYMNGVMAAIGISKGVEFTPTEKQKEMLTKAAQTGWKISKEIALNFDEKSSKTTGDTWFWKEAPSWVAHALTDKGNQYHALSDPYYHNIKTGYTNVDAITHMYTNHYSMSSGMINAKIGAGAKYAGAYKDKDLNPLIGSCNYSLHIPADVPASLFWSVTAYDAATAAGVNVENHQWPSLGDRDNPIKNSDDSVTLFFGPTAPENAQLAKNNWLQFDNDSWFSLIRFYGPQQSLFDGSWVPGEFEKINCVK | failed |
| MKRTVALAASLSLLWLLLSGYWHDPLLLGFGLLSVGAVVALSLRMGIVDAEGVPLRQIPGLITYLPWLAWQVVLSAITVARIVLSPKLSISPTLAAIPAAPKTAIGQVILANSITLTPGTLSLDLDDGAVLVHGLCAAGIDDLMTGEMGRRVAALDGRGAP | failed |
| MKRVAIFASGSGTNAEAIIQSQKAGQLPCEVALLITDKPGAKVVERVKVHEIPVCALDPKTYPSKEAYEIEVVQQLKEKQIDFVVLAGYMRLVGPTLLGAYEGRIVNIHPSLLPAFPGLHAIEQAIRANVKVTGVTIHYVDEGMDTGPIIAQEAVSIEEEDTLETLTTKIQAVEHRLYPATLHKLLSK | not failed |
| MKRWGLIFPTLYFFFLFIMIFVFNFPREVTRQWMWIQVGGIVFMIALGLYFDGYASLKEVITIGAFTLLWLGLSFTVNIRKEYFTLLGLIIELVLDLALREGG | failed |
| MKSARPRLSDAHGRRNCARRGRRPGHQPFWRLAMNIVRYPQFSTHALQNEIKHVFDRFFEHNSDTDESAVVTAQWVPRVDIKEEPKHFVLYADLPGIDPSQIEVQMDKGILSIKGERKSESSTETERFSRIERRYGSFHRRFALPDSADADGITASGHNGVLEIRIPKRPAATPRRIHVGNGQDTSDSTVQ | failed |
| MKSAVEQLSTYKSVHLNPRNIQTHFIGIPLIIWSAFLLFATIRIPLGDADNVNLGMILAIGIMLYYLRLHAKLALGLALFLAPVIYTTELVAHSENAFGLAITVFIVGWIFQLIGHRYEKAKPAFVDDLNQLLIGPFFLMAEVYFMLGLEKQLNAEITPIAIEKRRALEAHLKTK | failed |
| MKSAYIFFNPKSGKDEQALAKEVKSYLIEHDFQDDYVRIITPSSVEEAVALAKKASEDHIDLVIPLGGDGTINKICGGVYAGGAYPTIGLVPAGTVNNFSKALNIPQERNLALENLLNGHVKSVDICKVNDDY | failed |
| MKSILDGLADTTFRTITTDLLYVGSNDIQYEDIKGDMASKLGYFPQKFPLTSFRGSPFQEKMTAGDNPQLVPADQVNITEFYNKSLSSFKENEENIQCGENFMDIECFMVLNPSQQLAIAVLSLTLGTFTVLENLLVLCVILHSRSLRCRPSYHFIGSLAVADLLGSVIFVYSFIDFHVFHRKDSRNVFLFKLGGVTASFTASVGSLFLTAIDRYISIHRPLAYKRIVTRPKAVVAFCLMWTIAIVIAVLPLLGWNCEKLQSVCSDIFPHIDETYLMFWIGVTSVLLLFIVYAYMYILWKAHSHAVRMIQRGTQKSIIIHTSEDGKVQVTRPDQARMDIRLAKTLVLILVVLIICWGPLLAIMVYDVFGKMNKLIKTVFAFCSMLCLLNSTVNPIIYALRSKDLRHAFRSMFPSCEGTAQPLDNSMGDSDCLHKHANNAASVHRAAESCIKSTVKIAKVTMSVSTDTSAEAL | not failed |
| MKSILEQLSSITVVVADTGDLDAIKKFQPRDATTNPSLILAAAKNPDYIKLIDQALESSRKSLPAGFSESELIKETIDQVSVFFGKEILNLISGRVSTEVDARLSFDTEATVTKARKLINHYKSFGINKERILIKIASTWEGIKAAEILEKEGIKCNLTLLFNFCQAVACANAKITLISPFVGRILDWHKAKTGKDNFAGCEDPGVISVTKIYNYFKEKGFKTEVMGASFRNIDEIKELAGCDLLTIAPKFLDELNREEGELIKKLDEDTQSQSSIDYKFDEKDFRLSMLEDQMASEKLSEGITGFSKAIEELEELLLKRLSEINNQKLISTT | failed |
| MKSKFLTMKLILGALVLSFSCACSSSNSEEAMPQTAIGRQLVESGMANDVTLDNESVVRDGIKLNELAFKTFGESQHIFVATIDLNELTFTPATKDDKNVPATGPESSAPLPIHAFAAEANGKTVWLGVNGDYYADNPRRVMGLFYKDGVCINSQYFEGHDEVLYQLKNGETYVGQADEALAHEANLLHALGGYGLLVKDGVVQNFYEEMGDLQNTHPRTSVGLSQDRKTMYVFVVDGRRKDSFFALGLTLPHLATMMKAVGCYNAINLDGGGSTTLIIRKVNDGGKPTFPILNTPADDRVPRKVTNSMLIIEKK | failed |
| MKSKNQFFVSLLLKSTLVFSSFLMFADISRGQATVSISQQKILAQALTNQEREELTRLRAEKGERAQIQADFEQAFSRTTVLLNIWLVILSLFPVAIIALFWLLRRVAIREIVNRAMSQFEGIEKLETQLIIVKQDAENLIQDAKSINRLLEREIESLQQKIKIEQENLSVVTSELLQAKTDNLAQITTEIANFQSKLESLVGEFAHRLTQSDSDTKKQRDITLENIIKIESLLEVQLTELQKEAERHQKAVLGNIDTAGVDFNNYLINLQAEAQKNKNSVFEDFSHFQAELQGDLQQQKDIQLGNIQEVANIFNNQVSELQLEAQKQKDSLDNNLNKLHTDAQIRKDKIIHRLEELKDLFQAQVAELQIQTQQELASYLSELKIDTGNSKEKIIEELEKSGSEFVSQFSELQHNAQQQKLLILQKLEKLETDFVNQLSELQLDAQRRKDVILQELAENQPPVVVEAQPIHKDQLEVLVNENEQPQLSFDECIEQGDSLFSQKSYEEAITCYEQAVKIQQDNAVAWFKHGLTLARLKRFKDAIKSYHQAIKIKPDYHQAWCDLGVAFGNIRRHQEAFAAFDKATQVKPDDAVVWLNRGLALIELEEYEEAIASFDQALELQPNSPKIWDKRGYSLVRLGRDDEAITSFNQALEIKPEYASAYYNKAACYAMQGDVNSSLENLQQAIILNPKYKEDAATDIDFDEIAGDEKFKQLIATIGIRFDF | failed |
| MKSKTIRRWSFIHTWTSLICTVFLLMLALTGLPLIFHHEIDHLLGDSPELREMPADTPHLDLQQLVKAAEAHRPGEVMQYFGWDEDEPNGVMTIMARTAGTEPNASHTFMLDARTGEAVAMPSANGGLMMVMLRLHVDMFAGLPGKLLLAFMGILFVLAIISGTVLYLPFMRRLKFATVRQDKSSRLRWLDLHNLIGVVTLTWALVVGVTGVISACADLIIAAWRNDSLSAMVAPYRDAPPLTSLAPASRLLDIAREAAPGMQPDFIAFPGTRFSSEHHYAVFLKGSSHLTSHLLTPVLIDASSLQVTAVAGRPWYMDAMGMSQPLHFGDYGGMPMKVLWAAMDMLTIIVLGSGLYLWLARRRAGKSMPQVRP | failed |
| MKSLGRHLVAEFYECDREVLDNVQLIEQEMKQAAYESGATIVTSTFHRFLPYGVSGVVVISESHLTIHTWPEYGYAAIDLFTCGEDVDPWKAFEHLKKALKAKRVHVVEHERGRYDEIGIPEDSPHKAAV | not failed |
| MKSLIIGANGGVGQHLVRKLKARDVDFTAGVRKEEQVEALKADGIDATYIDVAKQSIDELIELFKSYDQILFSVGSGGSTGDDQTIIVDLDGAVKAIKASEQIDHQHFIMVSTYDSRREAFDASGDLKPYTIAKHYADDYLRHANLKYTIVHPGALTNEHETQQFNMSAQFENVQNPSITREDVAEVLVSVLTDEVLQGHEFQIINGDLSLLDATTKYLEE | failed |
| MKSLQIYLFLFLSVFALGACIQNDIPYPYIKGEITAFEVEGQTGDAEINKNSRTIVVEVGDEVDIEELRITRFVVNEEATYSIDEQYCVSPNKFPSAGFSALADLPAGADTRVDFSKTVPVLLRTYQDYQWMITVKQTIERVVEVENQALPAIIDDKNHTVLVYVSQKQDLSAVKITKMILGGSKATITPDPSTVTNFRRPQEFVVNRFDKEELWTVDVVRTTSTGTTGSADVWATRATLNGGMKQGTTPRVEYRKKSEDTWTVVPETDVKLESGTTFSTTLTGLQDGTDYVWRVVVEEVPSTESGFTTEKIQEIPNLNFDTWSQNPTGTFKKSWYPNADGSNSFWATGNDGVTSSLAGSRDSSTRPEEKSVVNGKAAYMVTLGSVPLVGVAAGNLFIGDYKTNAQSPLEHHHHHH | failed |
| MKSQISWKVGGQQGEGIESTGEIFATAMNRKGYFLYGYRHFSSRIKGGHTNNKIRVSKSPVHAISDDLDILIAFDQETIELNHHEMREDSIIIADSKAKPQKPENCVAQLIELPFTSTAKELGTALMKNMVAIGATSALMDLNTSTFETLIDNMFSKKGNKVVDMNIQALNMGYDLMKQQVTNVNGDFTLENGSGHPHLYMIGNDAIGLGAIAAGSRFMSAYPITPASEIMEYMIANLPKVDGTVVQTEDEIAAATMAIGANYAGVRGFTASAGPGLSLMMESIGLSGMTETPLVIINTQRGGPSTGLPTKQEQSDLMQMIYGTHGDIPKIVVAPTDAEDAFYLTMEAFNLAEEYQCPVILLSDLQLSLGKQTVKTLDYNKIDIRRGEIIQSDIERAEDDKAYFKRYALTASGVSPRPIPGVKGGIHHVTGVEHNEEGKPSEAPMNRQNQMEKRMRKTESLVINNPVLLNEHEDEADILYIGFISTKGAIGEGAERLERHGVKVNTMHIRQLHPFPKDIVQQAINKASKVIVAEHNYQGQLSSILKMNTQVNDKLVNQTKYDGKPFLPYEIEEKGLEIAKELKELV | failed |
| MKSRREQSIEEAIVANYLKMMIDNVNVWPRHFLRSEDVYCKNPWTLFVTRDPIILHFGRYFFVNRSVNSGLTDGCEYGCWRIIGRDRVIKSVTTGKILGLKKVYKFCETDRKPKSVFKFLEKEKRRVRDRRIWAMEEYRFASTWKQDYVICKIRRLYPQPFDYMLAQHIRGYYK | failed |
